Data on 32 sequences can be found in the supplement of paper PMC9170038.

For the series, the system named is MS2 coat protein. Kind of series: apparent KD of MS2 coat protein; designed switch direction (-1 OFF switch, 1 ON switch): -1; higher = weaker reporter binding. Put shortly:
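RNA switches sharing common flanks were transcribed by stalled E. coli RNA polymerase on Illumina chips. A doubling series of SNAP-549-labelled MS2 coat protein, from 0.7 or 1.5 nM to 3 µM, was applied in Tris-HCl pH 7.5 buffer with KCl, MgCl2, BSA, DTT, tRNA and Tween-20. Each step lasted 0.8–1.5 h at the bottom of the series and 10–20 min at the top. Normalised cluster fluorescence was curve-fitted, giving apparent KD as the per-design median over clusters.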

Where [1] appears, read: Eterna round: R95, input ligand: FMN 200 uM.
Where [2] appears, read: Eterna round: R95, input ligand: microRNA oligo, concentration not stated.
Where [3] appears, read: Eterna round: R95, input ligand: none.
[4] abbreviates: input ligand: microRNA oligo, concentration not stated.

Consider “UCGGUGUCAGGAUAUACAUGAGGAUCACCCAUGUAGAGAGAAGAUAGGGAAAGAGUAGGUAGAAGGGACGAGAG [JR_Exclu3_Sub045] (puzzle: Exclusion 3)”, for which the “apparent KD of MS2 coat protein” value came to 43.7 nM under setting [1], 29.1 nM under setting [2] and 41.7 nM under setting [3].
“UCUCAGUUAGGAUAUUUAAUGUGCCGUGAGGACACGCCUUUGAAGAAGGGACAUGAGGAUCACCCAUGUGAGUA [Eternabot (L2) Solution 44] (Eterna round: R97, puzzle: Exclusion 4)”: the “apparent KD of MS2 coat protein” value came to 47.3 nM (input ligand: FMN 200 uM) and 26.3 nM (input ligand: none).
For “UCUCGACAUGAGGAUCACCCAUGUCAGGAUAUUGUGUUUGAGGUUUUUUACCUUUUGACAAGAAGGGAUGUGUG [LRO-Excl1-22] (puzzle: Exclusion 1)”, the “apparent KD of MS2 coat protein” value under setting [2] amounted to 28.6 nM.
For the sequence “UCUCGCGGGCAAGGAUAUCCUACGUUGUUCUGGCCCGUGUAUGUUACAUGAGGAUCACCCAUGUGGGAGAAGGUGCACCAGGGC [Design 39] (Eterna round: R96, puzzle: Exclusion NG 2)”, the “apparent KD of MS2 coat protein” value (input ligand: FMN 200 uM) stood at 72.8 nM, the “apparent KD of MS2 coat protein” value under setting [4] came out at 43.8 nM and the “apparent KD of MS2 coat protein” value (input ligand: none) came out at 77.4 nM.
“UCUUAGUCAGGAUAUACAUGAGGAUCACCCAUGUAAAAUUUUAAUUUAAUUUUAAGGUGUAGAAGGGACCACUU [Ex3 #19] (Eterna round: R97, puzzle: Exclusion 3)”: the “apparent KD of MS2 coat protein” value by setting is: (input ligand: FMN 200 uM) 22.2 nM; (input ligand: none) 29 nM.
The like results for “UCUUAUUGAGGAUAUACAUUAAAAUACAUGAGGAUCACCCAUGUUCUUCAAUGUAUAUAUGUAGAAGGCAGAAUAU [Mat - Exclusion 5 - JL Mod - D27] (Eterna round: R97, puzzle: Exclusion 5)” were, in that order, 61.2 nM and 28.8 nM.
For “UCUUAUUGCAAGGAUAUGCAAUUUAUUUUUUAUGCAGAAGGUGCAACAUGAGGAUCACCCAUGUUUCCGGGCAU [JR_E6_Sub037] (puzzle: Exclusion 6)”, under setting [2], the “apparent KD of MS2 coat protein” value was determined as 13.5 nM.
The same measure, in the same setting: in the case of “UCUUAUUGCAAGGAUAUGCUAUUUAUUUUUUUUGCAGAAGGUGCAACAUGAGGAUCACCCAUGUUUCCGGGCAU [JR_E6_Sub036] (puzzle: Exclusion 6)” it was 20.3 nM.
With “UCUUCAGCCAAGUUCACAUACAUGAGGAUCACCCAUGUUGCGUAACGCAUGCAUAUCCUAGUUGCUCGUUCUACAGU [Eternabot (L1) Solution 6] (Eterna round: R97, puzzle: Sensor, turn-off variant 1)”, the “apparent KD of MS2 coat protein” value reads like this: (input ligand: FMN 200 uM) 26.4 nM; (input ligand: none) 33.1 nM.
For “UCUUUGUGAGGAUAUCAGUAGUAAAUAAAUAAAAUUACUACUGAGAAGGCACAUGAGGAUCACCCAUGUUCCUU [salish99_ex3_r3_091] (puzzle: Exclusion 4)”, the “apparent KD of MS2 coat protein” value under setting [2] is 13.5 nM.
In the case of “UGAAGGUCAGGAUAUGAGUCUAUCUGACGCAGACAUAGACAUUAGAAGGGACAUGAGGAUCACCCAUGUGGGAC [Eternabot (L1) Solution 29] (Eterna round: R97, puzzle: Exclusion 4)”, the “apparent KD of MS2 coat protein” value reads like this: (input ligand: FMN 200 uM) 106 nM; (input ligand: none) 84.8 nM.
“UGAAUGUCAGGAUAUCGUGCAUACAACGAAAGUUCUAUGUGCGAGAAGGGACAUGAGGAUCACCCAUGUCUUCG [Omei Ex4 A15] (Eterna round: R97, puzzle: Exclusion 4)”: the “apparent KD of MS2 coat protein” value by setting is: (input ligand: FMN 200 uM) 50.7 nM; (input ligand: none) 18.3 nM.
For the sequence “UGAGCUACAGGAUAUAUGUGGCGACCGUGAGGUCGAAGGUUACAUGAGGAUCACCCAUGUAGAAGGGUAGUUCU [Mat - Exclusion 2 - JL Mod - D20] (Eterna round: R97, puzzle: Exclusion 2)”, the “apparent KD of MS2 coat protein” value is, setting by setting: (input ligand: FMN 200 uM) 311 nM; (input ligand: none) 284 nM.
The like results for “UGAGCUUCAGGAUAUACGUGACGACCGUGAGGUCGAAGGUUACAUGAGGAUCACCCAUGUAGAAGGGAAGUUCU [Mat - Exclusion 2 - JL Mod - D27] (Eterna round: R97, puzzle: Exclusion 2)” were, in that order, 70.8 nM and 27.5 nM.
On to “UGAGUGCUGCGAGGAUAUACAUGAGGAUCACCCAUGUUUACCUGUGAGGCAAAGCCUCACAGGUUGUAGAAGGCGCAGUACUCU [Mat - Exclusion NG 2 - Mod of JL - D41] (Eterna round: R96, puzzle: Exclusion NG 2)”, for which the “apparent KD of MS2 coat protein” value is, setting by setting: (input ligand: FMN 200 uM) 16 nM; under setting [4], 11.3 nM; (input ligand: none) 18.6 nM.
As to “UGAUCAGACCGAGGAUAUACAUGGAGGACCCACGUGAGUGGGUCCACUACAUGAGGAUCACCCAUGUAGAAGGCGGUCUGAUCU [JL ENG2 1.91] (Eterna round: R96, puzzle: Exclusion NG 2)”, the “apparent KD of MS2 coat protein” value is 1880 nM (input ligand: FMN 200 uM), 91.3 nM under setting [4] and 128 nM (input ligand: none).
On to “UGAUUGAUUAACAGAUUAUACAUGAGGAUCACCCAUGUAGGUCCUACGUGCCCUUUAAGCAGCUCGUCUUAUUCCCA [Sensor-V1 #69] (Eterna round: R97, puzzle: Sensor, turn-off variant 1)”, for which the “apparent KD of MS2 coat protein” value (input ligand: FMN 200 uM) came to 43.7 nM and the “apparent KD of MS2 coat protein” value (input ligand: none) is 45.6 nM.
For the sequence “UGCAGACGAGGAUAUAGAUUUAAGUACAUGAGGAUCACCCAUGUACACAUGUAUUUAGAUUUAGAAGGCGUCUGCU [E5/17-A4] (Eterna round: R97, puzzle: Exclusion 5)”, the “apparent KD of MS2 coat protein” value (input ligand: FMN 200 uM) was 987 nM and the “apparent KD of MS2 coat protein” value (input ligand: none) is 1210 nM.
On to “UGCAUGCUAGGAUAUACGAAACAUUAGGGUUCUUUGUAUGAACAUGAGGAUCACCCAUGUAGAAGGAGCGUGCU [Mod7 of JL-ex2-2.15 mat747 mod] (puzzle: Exclusion 2)”, for which the “apparent KD of MS2 coat protein” value under setting [2] worked out at 92.4 nM.
With “UGCAUGUGAGGAUAUGGCGCUCGAUUGCGGAAGGAGCGAGUUUAGAAGGUACAUGAGGAUCACCCAUGUCACGU [Eternabot (L2) Solution 97] (Eterna round: R97, puzzle: Exclusion 4)”, the “apparent KD of MS2 coat protein” value was found to be 21.6 nM (input ligand: FMN 200 uM) and 25.9 nM (input ligand: none).
“UGCGAGUAAGGAUAUUCGCGACCGUUCACAAGAACGGUCGAGAAGAAGGUACUUGAGGAUCACCCAAGUCCUAG [Leonxegece] (Eterna round: R97, puzzle: Exclusion 4)”: the “apparent KD of MS2 coat protein” value is, setting by setting: (input ligand: FMN 200 uM) 103 nM; (input ligand: none) 24.2 nM.
In the same order, the values of “UGCGGUAGAGGAUAUACGUAGAAUUAGAUUCAUGUAAAACUACAUGAGGAUCACCCAUGUAGAAGGCUAUCGCU [JL-ex2-4.31 Eli mod] (Eterna round: R97, puzzle: Exclusion 2)” are 102 nM and 19.3 nM.
For the sequence “UGGCUGCUUAUGGAGUGUGACAUGAGGAUCACCCAUGUGGUAGUAAGGAACAAGCUUUUUACACGUACUUAUAAAGC [JR_SV3TOV1_Sub012] (puzzle: Sensor v3, turn-off variant 1)”, the “apparent KD of MS2 coat protein” value is, setting by setting: under setting [1], 296 nM; under setting [2], 64.3 nM; under setting [3], 438 nM.
As for “UGGGAGGGAGGAUAUACGAAAGUUAUUCUCAUGUCAGACCCACAUGAGGAUCACCCAUGUAGAAGGCCCGGGUC [EX2 B.17] (Eterna round: R97, puzzle: Exclusion 2)”, the “apparent KD of MS2 coat protein” value stood at 358 nM (input ligand: FMN 200 uM) and 203 nM (input ligand: none).
Take “UGGGUACUCCAUAGAAGAGACAUGAGGAUCACCCAUGUAGGGCAAGCUUUUUGCUCGUCUUAGGAUGAGGGAUAGGA [JR_SV3TOV1_Sub014] (puzzle: Sensor v3, turn-off variant 1)”: the “apparent KD of MS2 coat protein” value by setting is: under setting [1], 171 nM; under setting [2], 79.1 nM; under setting [3], 188 nM.
“UGGGUUCUCCAUAGAAGUAACAUGAGGAUCACCCAUGUAGGGCAAGUUUUUUGUUCGUCAUAGGCUGUGGAUUUGGA [JR_SV3TOV1_Sub020] (puzzle: Sensor v3, turn-off variant 1)”: the “apparent KD of MS2 coat protein” value was determined as 90.8 nM under setting [1], 170 nM under setting [2] and 133 nM under setting [3].
As for “UGGGUUGUUGUGAGGAUAUACUGUUUGUUUUGUUUGUAGAAGGUACAUGAGGAUCACCCAUGUUGGUUGUGGUU [JR_BME4_Sub031] (puzzle: Brourd's mod of Exclusion 4)”, the “apparent KD of MS2 coat protein” value under setting [2] was 204 nM.
As for “UGGUAGUGAGGAUAUCCAAUAUAUGACAUGAGGAUCACCCAUGUUUCCACUCGUACCUCCGGAGAAGGCACAUGGU [Ex5 #54] (Eterna round: R97, puzzle: Exclusion 5)”, the “apparent KD of MS2 coat protein” value reads like this: (input ligand: FMN 200 uM) 67.6 nM; (input ligand: none) 61.9 nM.
For “UGGUAGUUAGGAUAUACAUGAGGAUCACCCAUGUACGGGUGCAGAAAAGAAAGCCUUCGUAGAAGGAACACCUG [Aaredima] (Eterna round: R97, puzzle: Exclusion 3)”, the “apparent KD of MS2 coat protein” value (input ligand: FMN 200 uM) is 69.1 nM and the “apparent KD of MS2 coat protein” value (input ligand: none) turned out to be 62.6 nM.
In the same order, the values of “UGGUCACAUGAGGAUCACCCAUGUCAGGAUAUCGUCACUGGAGCUUCGGCUCCAGUGACGAGAAGGGAUAUAAU [E1/9-A1] (Eterna round: R97, puzzle: Exclusion 1)” are 191 nM and 57.8 nM.
For the sequence “UGGUCCCUGAAACAUGAGGAUCACCCAUGUAUAAUGAGGACAAAGGAUAUAUCCCACCAGGUAGGGUAGAAGGUUGAACUCUAC [Eternabot solution 42] (Eterna round: R96, puzzle: Exclusion NG 3)”, the “apparent KD of MS2 coat protein” value by setting is: (input ligand: FMN 200 uM) 13.1 nM; under setting [4], 10.6 nM; (input ligand: none) 16.2 nM.
Consider “UGUACGAUGCGUGCUGACAUGCGUCGUGCAGCAGGUGUUACAUGAGGAUCACCCAUGUCCUCAUUUGCUCGUCUUGU [SL-sv3-2.09 JL mod] (puzzle: Sensor v3, turn-off variant 2)”, for which the “apparent KD of MS2 coat protein” value is 379 nM under setting [1], 185 nM under setting [2] and 374 nM under setting [3].
